Data from patent publication US20250297032A1.

Key:
[1] = biological target: human FAPα-His tag (Sino biological) (human) (UniProt Q12884); assay: competitive ELISA on coated human FAPα; competitor (detected): FAP-I30-Bio
[2] = biological target: mouse FAPα-His protein (mouse) (UniProt P97321); assay: ELISA, coated mouse FAPα-His
[3] = biological target: human FAPα-His tag (Sino biological) (human) (UniProt Q12884); assay: competitive ELISA on coated human FAPα; biotinylated mAb alone, no competing Ab (row '0')
[4] = biological target: human FAPα-His tag (Sino biological) (human) (UniProt Q12884); assay: competitive ELISA on coated human FAPα; competitor (detected): FAP-I38-Bio
[5] = biological target: human FAPα-His tag (Sino biological) (human) (UniProt Q12884); assay: competitive ELISA on coated human FAPα; competitor (detected): FAP-G52-Bio
[6] = biological target: human FAPα on CHO-K1-hFAPα cells (human) (UniProt Q12884); assay: flow cytometry on CHO-K1-hFAPα cells
human FAPα on CHO-K1-hFAPα cells (human), sequence (Q12884 whole entry): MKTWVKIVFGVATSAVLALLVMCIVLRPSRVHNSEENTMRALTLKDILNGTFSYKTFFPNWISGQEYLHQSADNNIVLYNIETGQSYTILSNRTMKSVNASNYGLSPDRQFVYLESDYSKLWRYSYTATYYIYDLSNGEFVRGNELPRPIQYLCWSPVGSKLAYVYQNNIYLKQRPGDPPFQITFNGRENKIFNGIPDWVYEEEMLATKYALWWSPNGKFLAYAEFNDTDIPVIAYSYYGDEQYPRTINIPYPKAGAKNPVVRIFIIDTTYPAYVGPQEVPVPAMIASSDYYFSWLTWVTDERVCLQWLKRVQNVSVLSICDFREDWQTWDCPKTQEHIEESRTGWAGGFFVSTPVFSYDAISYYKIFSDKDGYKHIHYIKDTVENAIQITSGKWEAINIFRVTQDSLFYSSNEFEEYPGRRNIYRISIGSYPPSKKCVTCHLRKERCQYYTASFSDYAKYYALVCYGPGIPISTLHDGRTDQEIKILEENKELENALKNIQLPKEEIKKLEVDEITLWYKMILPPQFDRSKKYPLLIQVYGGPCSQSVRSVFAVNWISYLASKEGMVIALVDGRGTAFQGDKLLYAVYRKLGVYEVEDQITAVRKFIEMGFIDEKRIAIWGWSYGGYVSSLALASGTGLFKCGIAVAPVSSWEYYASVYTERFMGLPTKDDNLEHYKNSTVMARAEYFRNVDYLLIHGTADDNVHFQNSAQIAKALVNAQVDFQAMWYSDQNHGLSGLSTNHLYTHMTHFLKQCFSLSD

[7] = biological target: human FAPα-His tag (Sino biological) (human) (UniProt Q12884); assay: competitive ELISA on coated human FAPα; competitor (detected): FAP-G14-Bio
[8] = biological target: human FAPα on CHO-K1-hFAPα cells (human) (UniProt Q12884); assay: flow cytometry on CHO-K1-hFAPα cells (MFI of PE); set-up: unit not given beside the values
[9] = biological target: human FAPα-His tag (Sino biological) (human) (UniProt Q12884); assay: ELISA, coated human FAPα-His
[10] = biological target: human FAPα-His tag (Sino biological) (human) (UniProt Q12884); assay: competitive ELISA on coated human FAPα; competitor (detected): FAP-I37-Bio
[11] = biological target: human FAPα-His tag (Sino biological) (human) (UniProt Q12884); assay: competitive ELISA on coated human FAPα; competitor (detected): FAP-J40-Bio
[12] = biological target: human FAPα-His tag (Sino biological) (human) (UniProt Q12884); assay: competitive ELISA on coated human FAPα; competitor (detected): FAPα (BMK)-Bio
[13] = biological target: human FAPα-His tag (Sino biological) (human) (UniProt Q12884); assay: SPR (Biacore T200), mAb captured on Protein A chip, human FAPα-His as analyte

human FAPα-His tag (Sino biological) (human), sequence (Q12884 26-760 limits assumed): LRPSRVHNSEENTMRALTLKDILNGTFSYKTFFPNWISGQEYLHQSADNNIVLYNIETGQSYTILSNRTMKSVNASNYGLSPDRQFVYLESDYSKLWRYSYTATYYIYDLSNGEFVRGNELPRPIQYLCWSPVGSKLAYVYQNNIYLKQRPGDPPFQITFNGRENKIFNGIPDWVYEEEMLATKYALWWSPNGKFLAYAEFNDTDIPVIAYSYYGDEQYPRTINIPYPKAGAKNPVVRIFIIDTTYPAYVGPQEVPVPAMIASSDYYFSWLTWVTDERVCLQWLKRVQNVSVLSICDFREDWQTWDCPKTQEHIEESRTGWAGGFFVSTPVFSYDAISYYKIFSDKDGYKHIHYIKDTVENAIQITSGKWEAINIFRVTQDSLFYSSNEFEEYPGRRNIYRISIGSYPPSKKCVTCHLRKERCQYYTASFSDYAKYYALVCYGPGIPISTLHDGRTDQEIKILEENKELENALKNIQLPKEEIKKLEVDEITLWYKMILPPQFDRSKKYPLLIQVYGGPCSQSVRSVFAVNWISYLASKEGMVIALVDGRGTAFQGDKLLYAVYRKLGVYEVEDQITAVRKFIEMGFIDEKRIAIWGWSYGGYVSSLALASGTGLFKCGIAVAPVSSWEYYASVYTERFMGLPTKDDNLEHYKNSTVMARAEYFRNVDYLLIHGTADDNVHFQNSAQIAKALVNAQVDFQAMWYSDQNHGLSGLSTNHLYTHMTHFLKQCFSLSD
mouse FAPα-His protein (mouse), sequence (P97321 26-761 limits assumed): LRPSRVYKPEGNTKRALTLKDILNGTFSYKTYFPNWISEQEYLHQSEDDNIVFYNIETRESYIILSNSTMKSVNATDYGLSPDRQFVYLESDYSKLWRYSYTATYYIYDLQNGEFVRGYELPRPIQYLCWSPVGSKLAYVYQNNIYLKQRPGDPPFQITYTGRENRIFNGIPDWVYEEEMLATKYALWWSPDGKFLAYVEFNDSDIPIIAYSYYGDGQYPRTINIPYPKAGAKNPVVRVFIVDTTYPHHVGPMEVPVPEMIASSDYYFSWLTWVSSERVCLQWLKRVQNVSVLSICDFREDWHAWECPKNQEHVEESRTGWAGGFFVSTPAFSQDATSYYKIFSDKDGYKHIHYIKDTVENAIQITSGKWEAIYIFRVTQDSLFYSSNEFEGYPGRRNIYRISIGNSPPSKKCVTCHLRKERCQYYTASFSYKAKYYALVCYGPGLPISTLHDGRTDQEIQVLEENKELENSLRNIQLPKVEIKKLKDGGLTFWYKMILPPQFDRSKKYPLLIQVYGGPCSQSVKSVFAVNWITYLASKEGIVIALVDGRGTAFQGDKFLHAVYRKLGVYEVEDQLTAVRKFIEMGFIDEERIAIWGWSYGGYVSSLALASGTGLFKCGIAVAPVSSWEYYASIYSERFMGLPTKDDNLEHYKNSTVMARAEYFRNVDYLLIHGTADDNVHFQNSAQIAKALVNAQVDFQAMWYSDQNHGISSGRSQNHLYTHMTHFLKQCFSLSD

## FAP-4B9 clone from Roche (FAPα-BMK) (antibody)
[1]
  OD 450 nm: 0.155 OD 450 nm
[2]
  EC50: 10.3 ng/mL
[3]
  OD 450 nm: 1.26 OD 450 nm
[4]
  OD 450 nm: 0.265 OD 450 nm
[5]
  OD 450 nm: 0.169 OD 450 nm
[6]
  EC50: 0.043 ng/mL
[7]
  OD 450 nm: 0.135 OD 450 nm
[8]
  Cmax: 424
[9]
  EC50: 5.55 ng/mL
[10]
  OD 450 nm: 0.23 OD 450 nm
[11]
  OD 450 nm: 0.179 OD 450 nm
[12]
  OD 450 nm: 0.171 OD 450 nm
[13]
  Kd: 6.94 nM
  koff: 0.000208 s⁻¹
  kon: 30000 M⁻¹ s⁻¹
